The results in this text go back to patent publication US20240199757A1 (UNIVERSITY OF CHICAGO, published 2024).

The target of experiment [1] is T1, human NT5E expressed on MDA-MB-231 cells (human, UniProt P21589 27-549).
T1 sequence (looked up): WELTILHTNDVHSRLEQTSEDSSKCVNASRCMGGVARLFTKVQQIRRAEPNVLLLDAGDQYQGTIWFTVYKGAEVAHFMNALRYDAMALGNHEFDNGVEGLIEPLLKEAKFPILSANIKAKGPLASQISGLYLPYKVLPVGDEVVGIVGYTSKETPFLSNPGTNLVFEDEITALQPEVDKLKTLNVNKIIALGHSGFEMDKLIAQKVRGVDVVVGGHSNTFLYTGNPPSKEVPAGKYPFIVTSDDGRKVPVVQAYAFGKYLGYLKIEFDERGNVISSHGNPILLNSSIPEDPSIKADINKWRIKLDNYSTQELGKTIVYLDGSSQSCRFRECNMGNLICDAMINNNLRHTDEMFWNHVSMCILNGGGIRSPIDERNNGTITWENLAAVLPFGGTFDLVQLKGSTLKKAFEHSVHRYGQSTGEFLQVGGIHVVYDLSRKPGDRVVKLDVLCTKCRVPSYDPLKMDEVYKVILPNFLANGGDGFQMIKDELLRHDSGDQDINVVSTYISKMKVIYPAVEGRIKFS
Put plainly: cell-based or functional assay.

Experiment [2] deals with T1, human NT5E expressed on MDA-MB-231 cells. The experiment in a line: flow cytometry on MDA-MB-231 cells, 1 mM ATP. On the procedure:
Flow cytometry analysis of antibodies binding to human NT5E expressed on MDA-MB-231 cells in ATP-free condition (black) or in 1 mM ATP (red). Top panel: (left) 1780 Fab and (right) 1780 IgG titrations. […] Binding was measured at the indicated range of antibody concentrations and is expressed as mean±st. dev of median fluorescence intensity (MFI) of 1-2 replicates. Data were analyzed using OriginLab, and EC₅₀ values are shown next to the fitted curves.
Human MDA-MB-231 cells and murine 4T1 cells were grown to 90% confluency, detached with 5 mM EDTA for 15 min at 37° C. and then resuspended in 37° C. lx PBS (#10010031, Gibco) supplemented with 1% FBS and 1OpM ZnCl2. Separate working buffers (WB) of PBS and 1% FBS with or without fixed nucleotide concentrations were used throughout all washing steps to maintain constant condition. In 96-well plates (#3799, Costar), 0.2×10⁶ cells were added per well. The plates were spun at 500×g for 5 min and the supernatant was removed. Anti-NT5E antibodies were diluted to the desired concentration in 100 μL WB, added to the cells and the plates were incubated for 20 min at 37° C. Plates were spun and cells were washed twice with WB then spun a second time. Cells were stained with 100 μL of secondary antibody (Alexa Fluor 647 AffiniPure Goat Anti-Human IgG, F(ab′)2 fragment specific, #109-605-006, Jackson, 1:200) dilution and plates were incubated for 20 min at 37° C. Cells were washed twice with WB then fixed on ice with WB supplemented with 0.5% PFA. Fixing solution was removed by centrifugation and cells were resuspended in cold 1× PBS. Samples were analyzed by flow cytometry using CytoFLEX (Beckman Coulter) and mean fluorescence intensity (MFI) data was extracted using FlowJo software. Resulting binding data was plotted using OriginLab.
(In general: Flow cytometry measures light scatter and fluorescence of single cells or particles in a stream.)

The target of experiment [3] is T2, Full-length cynomolgus NT5E (recombinant) (cynomolgus, UniProt P21589 27-549 (human entry)).
T2 construct: also called cNT5E; cyno NT5E
T2 chain: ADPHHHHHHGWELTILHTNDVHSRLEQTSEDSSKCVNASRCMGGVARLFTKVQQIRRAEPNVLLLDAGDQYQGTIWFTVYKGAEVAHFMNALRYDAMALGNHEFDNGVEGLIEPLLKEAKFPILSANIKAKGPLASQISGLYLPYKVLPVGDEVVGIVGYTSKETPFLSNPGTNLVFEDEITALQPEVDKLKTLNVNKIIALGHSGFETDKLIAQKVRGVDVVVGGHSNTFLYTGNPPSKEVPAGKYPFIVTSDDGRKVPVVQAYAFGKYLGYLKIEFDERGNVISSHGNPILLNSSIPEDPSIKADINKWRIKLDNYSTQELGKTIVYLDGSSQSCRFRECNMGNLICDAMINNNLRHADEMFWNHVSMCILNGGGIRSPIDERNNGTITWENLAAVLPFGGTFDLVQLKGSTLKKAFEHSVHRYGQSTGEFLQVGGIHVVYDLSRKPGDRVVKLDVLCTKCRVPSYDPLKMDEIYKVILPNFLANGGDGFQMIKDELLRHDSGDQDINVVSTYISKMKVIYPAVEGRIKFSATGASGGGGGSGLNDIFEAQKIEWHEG
Put plainly: ELISA, biotinylated NT5E on neutravidin plate, 1 mM ATP. As for the experimental part: (B) Protein ELISA: Protein-based multipoint ELISA was performed to estimate the affinity of the generated Fabs and IgGs to NT5E. The binding of the Fabs and IgGs to the closed form of NT5E were determined in ELISA buffer (HBST) supplemented with 10 μM zinc chloride and 1 mM ATP while the binding of the same to open form of NT5E were determined in ELISA buffer (HBST) without any cofactors. A fixed concentration of the immobilized target (50 nM) on ELISA plate was incubated with 3-fold serial dilutions of the purified Fabs and IgGs starting from 3 μM and 1 μM respectively for 15 min. The plates were washed and were subsequently incubated with a secondary HRP-conjugated anti-protein L monoclonal antibody (#32420, ThermoFisher, 1:6000 dilution). As with phage ELISA, the plates were again washed, developed with TMB substrate and quenched with 1.0 M HCl, and absorbance (Abs450) was determined. To determine the affinity (EC50), the data were fitted with a non-linear, 4-parameter logistic curve in OriginLab.
For orientation: ELISA stands for enzyme-linked immunosorbent assay.

B1: 1789 Fab (Fab, V domains shown)
VH: EVQLVESGGGLVQPGGSLRLSCAASGFNVSYSSIHWVRQAPGKGLEWVASISSSSGYTYYADSVKGRFTISADTSKNTAYLQMNSLRAEDTAVYYCARNYWGWYPFYYFAFDYWGQGTLVTV
VL: DIQMTQSPSSLSASVGDRVTITCRASQSVSSAVAWYQQKPGKAPKLLIYSASSLYSGVPSRFSGSRSGTDFTLTISSLQPEDFATYYCQQGWDYPITFGQGTKVEIKR
In general, EC50 refers to the concentration that produces a half-maximal response. For the molecule B1, the “IC50 of NT5E phosphate production on MDA-MB-231 cells, +500 µM ATP” value in experiment [1] came out at 0.122 µM. Besides, the figures for the EC50 in experiment [2] and in experiment [3] were 0.053 µM and 0.028 µM, respectively.

B2: 1789 IgG (antibody, V domains shown)
VH: EVQLVESGGGLVQPGGSLRLSCAASGFNVSYSSIHWVRQAPGKGLEWVASISSSSGYTYYADSVKGRFTISADTSKNTAYLQMNSLRAEDTAVYYCARNYWGWYPFYYFAFDYWGQGTLVTVSS
VL: B1 VL
As to B2, in experiment [1], the “IC50 of NT5E phosphate production on MDA-MB-231 cells, +500 µM ATP” value came out at 0.0022 µM. The EC50 in experiment [2] stood at 0.0094 µM; in experiment [3] it was 0.00057 µM.
